Substitutions are numbered along the chain they refer to.

This is an account of results in article PMC12170172, “Initiation of ERAD by the bifunctional complex of Mnl1/Htm1 mannosidase and protein disulfide isomerase” (Nature Structural & Molecular Biology, 2025).

Holding throughout (settings): both partners purified
In assay [1] the target is T1, Pdi1 (protein disulfide isomerase) (S. cerevisiae, UniProt P17967 29-522).
T1 construct: Pdi1, protein disulfide isomerase of S. cerevisiae, untagged; Trx domains a, b, b′ and a′; amino acids 24–500 could be modelled; source: S. cerevisiae, overexpressed together with Mnl1–FLAG (GAL1 promoter), purified as a complex
T1 sequence (looked up): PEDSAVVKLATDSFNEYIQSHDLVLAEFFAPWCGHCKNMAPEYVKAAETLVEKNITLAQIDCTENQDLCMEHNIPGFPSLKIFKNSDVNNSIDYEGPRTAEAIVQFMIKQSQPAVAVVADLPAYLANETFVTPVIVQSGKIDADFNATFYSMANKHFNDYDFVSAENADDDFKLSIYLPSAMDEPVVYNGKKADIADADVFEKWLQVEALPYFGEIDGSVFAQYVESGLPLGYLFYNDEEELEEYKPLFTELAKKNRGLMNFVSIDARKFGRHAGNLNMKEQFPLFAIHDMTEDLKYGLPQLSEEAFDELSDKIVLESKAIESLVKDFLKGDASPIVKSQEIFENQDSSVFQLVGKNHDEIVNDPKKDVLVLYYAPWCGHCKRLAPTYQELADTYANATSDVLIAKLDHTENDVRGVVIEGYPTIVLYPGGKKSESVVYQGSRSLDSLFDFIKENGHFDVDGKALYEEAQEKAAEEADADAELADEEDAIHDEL
Briefly: cross-linking; competition: RBΔS, RBun or RBsc incubated with Mnl1–Pdi1 complex at the indicated molar ratios (tenfold excess in Fig. 6) in 25 mM HEPES pH 7.4, 150 mM NaCl, 0.1% Nonidet P-40, 2 mM CaCl2, 30 °C 30 min; then DPS 30 °C 30 min, N-ethylmaleimide; SDS-PAGE, Coomassie blue.

For assay [2], the target named is T2, Mnl1 (C579S)–Pdi1 complex (S. cerevisiae, UniProt P38888 21-796; P17967 29-522, C579S).
T2 construct: Mnl1 (Htm1) of S. cerevisiae with a substituted loop cysteine; Pdi1 of S. cerevisiae, untagged; source: S. cerevisiae, overexpressed, purified (anti-FLAG M2 resin, Superdex 200); not shown: FLAG, C-terminal, kept
T2 sequence (looked up) 1: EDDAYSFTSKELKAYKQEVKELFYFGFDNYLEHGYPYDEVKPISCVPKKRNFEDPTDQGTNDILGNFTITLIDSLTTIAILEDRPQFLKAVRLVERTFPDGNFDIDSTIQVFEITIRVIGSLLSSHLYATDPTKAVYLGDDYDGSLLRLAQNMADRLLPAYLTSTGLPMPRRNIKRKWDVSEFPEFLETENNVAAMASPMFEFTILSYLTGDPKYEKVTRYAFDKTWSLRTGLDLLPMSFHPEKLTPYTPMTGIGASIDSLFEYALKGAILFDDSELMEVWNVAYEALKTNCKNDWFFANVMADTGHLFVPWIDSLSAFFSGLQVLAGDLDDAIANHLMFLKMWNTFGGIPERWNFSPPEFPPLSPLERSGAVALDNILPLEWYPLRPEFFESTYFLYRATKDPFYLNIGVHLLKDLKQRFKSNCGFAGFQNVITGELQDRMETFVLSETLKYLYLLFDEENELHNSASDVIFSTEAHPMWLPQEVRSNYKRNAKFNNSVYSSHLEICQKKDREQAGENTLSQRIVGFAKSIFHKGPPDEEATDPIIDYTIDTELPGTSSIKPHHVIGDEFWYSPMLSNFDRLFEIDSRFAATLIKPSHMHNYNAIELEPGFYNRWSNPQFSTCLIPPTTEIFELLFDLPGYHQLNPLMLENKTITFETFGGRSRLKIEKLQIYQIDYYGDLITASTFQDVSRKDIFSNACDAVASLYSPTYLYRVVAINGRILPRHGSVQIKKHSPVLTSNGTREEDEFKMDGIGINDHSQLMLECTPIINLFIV
T2 sequence (looked up) 2: T1 sequence (looked up)
The experiment in a line: pull-down; as a6, but the Mnl1–Pdi1 complex was pretreated with DPS to induce disulfides between the Mnl1 loop cysteines and the active-site cysteines of Pdi1.

In assay [3] the target is T3, Mnl1 (C579S;C644S)–Pdi1 complex (S. cerevisiae, UniProt P38888 21-796; P17967 29-522, C579S | C644S).
T3 construct: Mnl1 (Htm1) of S. cerevisiae with both loop cysteines substituted; Pdi1 of S. cerevisiae, untagged; also called double-cysteine mutant; source: S. cerevisiae, overexpressed, purified (anti-FLAG M2 resin, Superdex 200); not shown: FLAG, C-terminal, kept
T3 sequence (looked up) 1: T2 sequence (looked up) 1 with C624S
T3 sequence (looked up) 2: T1 sequence (looked up)
The assay is described as above.

B1: RNase B, completely unfolded (reduced and denatured) (enzyme, UniProt P61823 27-150, looked up)
chain: KETAAAKFERQHMDSSTSAASSSNYCNQMMKSRNLTKDRCKPVNTFVHESLADVQAVCSQKNVACKNGQTNCYQSYSTMSITDCRETGSSKYPNCAYKTTQANKHIIVACEGNPYVPVHFDASV
modifications: N-glycan; cysteines reduced; DyLight 680 (NHS ester) label in the pull-downs
notes: RNase B, reduced and denatured; also called RBun; unfolded RNase B; source: prepared from RB with 6 M guanidine hydrochloride and 100 mM DTT, denaturants removed by dialysis and a desalting column
As for B1, the “molar excess for half-maximal inhibition of the Mnl1–Pdi1 disulfide adduct” value in assay [1] came to 2 fold molar excess. Also, the binding result in assay [2] and in assay [3] was “binds” each time.
